This passage reports Km results from paper PMC8588562, “Layer-by-Layer Encapsulation of Herbicide-Degrading Bacteria for Improved Surface Properties and Compatibility in Soils” (Polymers, 2021).

The series concerns CCNc1nc(Cl)nc(NC(C)C)n1. The experiment in a line: cells, lysate or membranes. Conditions: apparent, whole uncoated E. coli cells (free cells), PBS (0.1 M, pH 7.4), room temperature, 20 min, 2.5 mg/mL cells, ATZ 1-20 mg/L.

“atrazine chlorohydrolase (AtzA) (Pseudomonas sp. ADP)”: the Km worked out at 89.12 ± 29.48 µM.

Usually Km stands for the substrate concentration at which the rate is half of its maximum.
